Test results: the supplement of paper PMC10065799, “High-throughput profiling of sequence recognition by tyrosine kinases and SH2 domains using bacterial peptide display” (eLife, 2023)

test system: Fer (mouse); test: phosphorylation enrichment, bacterial display (enrichment ratio); higher = better substrate or ligand; peptides without Tyr show the background
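Further: 11-residue human phosphosite peptides and single-mutation variants displayed on the E. coli surface, counted by deep sequencing, each peptide's frequency after selection divided by its frequency in the unselected input library; frequency after pTyr selection over input frequency; kinase dosed for 20-30% of maximal phosphorylation in three min.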

Sequence | phosphorylation enrichment
SFHSSYSEIKD [DCLRE1C_Y322] | 0.52
AVPSLYASGRT [ACTA1_Y145_L142P] | 0.451
MSNFACVKREV [SCN1A_Y1694_Y1694C] | 0.437
EHTTLYSDNST [KANSL1_Y223_N225D] | 0.661
ESDFPYSSSFE [SRPK2_Y427_T426P_YF] | 0.531
NLDRFYQQVTK [SEC16A_Y1041] | 0.621
AIGFEYSEINI [SIGLEC12_Y588_YF] | 3.84
YVFSFYHAFSG [ACTN4_Y265_S262F] | 0.69
VKMLLYTEVTR [GDI1_Y93] | 1.08
GHEEFYSTHPH [LRRK2_Y1402_R1398H] | 1.41
SEPDLYYDPRG [PKP1_Y160_C161Y] | 1.65
IRGNMYYENSY [EGFR_Y112] | 0.535
YGGLRYGYGVL [KRTAP20-2_Y13] | 0.448
RPQDGYRIVQH [PTPRT_Y1329] | 0.591
LFDPDYMKVIL [CYP4A22_Y104_YF] | 1.2
CTTIHYHFMCN [TP53_Y234_N235H_YF] | 0.632
KVDKEYEVRVR [GHR_Y226] | 0.396
LYSNAYLNDLA [ALDH1A1_Y119] | 4.03
LPKEQYLYTKE [AFG3L2_Y614] | 0.75
FRGFSYDDIPD [TMEM230_Y112_YF] | 0.405
HLTLVYGGIFL [FBP1_Y259_R255L] | 0.699
LPPGEYVVVPS [CAPN1_Y494] | 0.778
FISLIYTNFEA [GSTP1_Y109_YF] | 2
MSRDVYSTDCF [NTRK2_Y702_Y706C_YF] | 0.516
DEIPLYLKGGV [COX7A2_Y44] | 0.485
DISEPYKVYRI [IRF8_Y107] | 0.497
KILTHYKRPHT [KMT2D_Y5349] | 0.445
RAIDMYLMGCF [GABRB2_Y308_K303R] | 0.799

test system: c-Src; test: as above

Sequence | phosphorylation enrichment
SFHSSYSEIKD [DCLRE1C_Y322] | 0.506
AVPSLYASGRT [ACTA1_Y145_L142P] | 0.451
MSNFACVKREV [SCN1A_Y1694_Y1694C] | 0.446
EHTTLYSDNST [KANSL1_Y223_N225D] | 0.497
ESDFPYSSSFE [SRPK2_Y427_T426P_YF] | 0.823
NLDRFYQQVTK [SEC16A_Y1041] | 0.498
AIGFEYSEINI [SIGLEC12_Y588_YF] | 1.46
YVFSFYHAFSG [ACTN4_Y265_S262F] | 0.964
VKMLLYTEVTR [GDI1_Y93] | 0.834
GHEEFYSTHPH [LRRK2_Y1402_R1398H] | 1.2
SEPDLYYDPRG [PKP1_Y160_C161Y] | 4.93
IRGNMYYENSY [EGFR_Y112] | 0.526
YGGLRYGYGVL [KRTAP20-2_Y13] | 1.64
RPQDGYRIVQH [PTPRT_Y1329] | 0.649
LFDPDYMKVIL [CYP4A22_Y104_YF] | 0.675
CTTIHYHFMCN [TP53_Y234_N235H_YF] | 0.488
KVDKEYEVRVR [GHR_Y226] | 0.41
LYSNAYLNDLA [ALDH1A1_Y119] | 1.1
LPKEQYLYTKE [AFG3L2_Y614] | 0.913
FRGFSYDDIPD [TMEM230_Y112_YF] | 0.485
HLTLVYGGIFL [FBP1_Y259_R255L] | 2.71
LPPGEYVVVPS [CAPN1_Y494] | 0.641
FISLIYTNFEA [GSTP1_Y109_YF] | 4.67
MSRDVYSTDCF [NTRK2_Y702_Y706C_YF] | 2.4
DEIPLYLKGGV [COX7A2_Y44] | 0.422
DISEPYKVYRI [IRF8_Y107] | 0.622
KILTHYKRPHT [KMT2D_Y5349] | 0.379
RAIDMYLMGCF [GABRB2_Y308_K303R] | 1.29

test system: AncSZ; test: as above

Sequence | phosphorylation enrichment
SFHSSYSEIKD [DCLRE1C_Y322] | 0.738
AVPSLYASGRT [ACTA1_Y145_L142P] | 0.65
MSNFACVKREV [SCN1A_Y1694_Y1694C] | 0.768
EHTTLYSDNST [KANSL1_Y223_N225D] | 0.697
ESDFPYSSSFE [SRPK2_Y427_T426P_YF] | 1.1
NLDRFYQQVTK [SEC16A_Y1041] | 0.734
AIGFEYSEINI [SIGLEC12_Y588_YF] | 1.14
YVFSFYHAFSG [ACTN4_Y265_S262F] | 1.37
VKMLLYTEVTR [GDI1_Y93] | 1.32
GHEEFYSTHPH [LRRK2_Y1402_R1398H] | 0.664
SEPDLYYDPRG [PKP1_Y160_C161Y] | 2.91
IRGNMYYENSY [EGFR_Y112] | 0.761
YGGLRYGYGVL [KRTAP20-2_Y13] | 0.671
RPQDGYRIVQH [PTPRT_Y1329] | 0.797
LFDPDYMKVIL [CYP4A22_Y104_YF] | 1.76
CTTIHYHFMCN [TP53_Y234_N235H_YF] | 1.1
KVDKEYEVRVR [GHR_Y226] | 0.711
LYSNAYLNDLA [ALDH1A1_Y119] | 0.831
LPKEQYLYTKE [AFG3L2_Y614] | 1.3
FRGFSYDDIPD [TMEM230_Y112_YF] | 1.35
HLTLVYGGIFL [FBP1_Y259_R255L] | 1.61
LPPGEYVVVPS [CAPN1_Y494] | 1.7
FISLIYTNFEA [GSTP1_Y109_YF] | 1.56
MSRDVYSTDCF [NTRK2_Y702_Y706C_YF] | 1
DEIPLYLKGGV [COX7A2_Y44] | 0.79
DISEPYKVYRI [IRF8_Y107] | 0.911
KILTHYKRPHT [KMT2D_Y5349] | 0.495
RAIDMYLMGCF [GABRB2_Y308_K303R] | 1.87

target: EPHB2 (UniProt P29323); test: as above
Sequence (P29323 whole entry, looked up): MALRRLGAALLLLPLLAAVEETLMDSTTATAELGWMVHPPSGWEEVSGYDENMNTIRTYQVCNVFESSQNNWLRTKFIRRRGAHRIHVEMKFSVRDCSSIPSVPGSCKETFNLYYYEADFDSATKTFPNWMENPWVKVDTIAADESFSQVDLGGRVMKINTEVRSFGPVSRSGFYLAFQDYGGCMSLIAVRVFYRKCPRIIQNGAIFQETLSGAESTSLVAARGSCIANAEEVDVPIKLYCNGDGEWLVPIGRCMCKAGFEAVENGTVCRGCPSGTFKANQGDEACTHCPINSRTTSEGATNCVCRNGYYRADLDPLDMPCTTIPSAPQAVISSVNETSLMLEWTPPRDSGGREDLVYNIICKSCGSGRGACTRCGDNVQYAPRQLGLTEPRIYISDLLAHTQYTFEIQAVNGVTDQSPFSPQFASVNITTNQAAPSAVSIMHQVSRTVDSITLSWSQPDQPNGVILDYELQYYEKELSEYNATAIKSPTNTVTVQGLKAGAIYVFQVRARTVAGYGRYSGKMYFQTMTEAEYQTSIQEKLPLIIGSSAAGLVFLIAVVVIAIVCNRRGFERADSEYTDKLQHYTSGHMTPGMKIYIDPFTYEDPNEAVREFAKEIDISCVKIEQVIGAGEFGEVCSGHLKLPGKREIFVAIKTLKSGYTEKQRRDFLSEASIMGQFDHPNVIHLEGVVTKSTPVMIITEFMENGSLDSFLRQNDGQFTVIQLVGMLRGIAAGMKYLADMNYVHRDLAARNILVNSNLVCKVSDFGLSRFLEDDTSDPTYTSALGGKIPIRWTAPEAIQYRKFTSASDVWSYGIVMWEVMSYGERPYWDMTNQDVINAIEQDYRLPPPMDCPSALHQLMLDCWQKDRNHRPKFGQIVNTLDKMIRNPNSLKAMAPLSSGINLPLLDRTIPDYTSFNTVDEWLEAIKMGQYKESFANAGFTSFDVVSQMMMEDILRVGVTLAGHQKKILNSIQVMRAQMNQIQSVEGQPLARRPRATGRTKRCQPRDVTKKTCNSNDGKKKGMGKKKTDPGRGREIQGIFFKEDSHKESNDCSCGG

Sequence | phosphorylation enrichment
SFHSSYSEIKD [DCLRE1C_Y322] | 0.532
AVPSLYASGRT [ACTA1_Y145_L142P] | 0.433
MSNFACVKREV [SCN1A_Y1694_Y1694C] | 0.45
EHTTLYSDNST [KANSL1_Y223_N225D] | 0.433
ESDFPYSSSFE [SRPK2_Y427_T426P_YF] | 0.502
NLDRFYQQVTK [SEC16A_Y1041] | 0.531
AIGFEYSEINI [SIGLEC12_Y588_YF] | 0.5
YVFSFYHAFSG [ACTN4_Y265_S262F] | 0.825
VKMLLYTEVTR [GDI1_Y93] | 1.25
GHEEFYSTHPH [LRRK2_Y1402_R1398H] | 0.7
SEPDLYYDPRG [PKP1_Y160_C161Y] | 13.6
IRGNMYYENSY [EGFR_Y112] | 0.594
YGGLRYGYGVL [KRTAP20-2_Y13] | 0.608
RPQDGYRIVQH [PTPRT_Y1329] | 0.565
LFDPDYMKVIL [CYP4A22_Y104_YF] | 1.43
CTTIHYHFMCN [TP53_Y234_N235H_YF] | 0.637
KVDKEYEVRVR [GHR_Y226] | 0.547
LYSNAYLNDLA [ALDH1A1_Y119] | 0.685
LPKEQYLYTKE [AFG3L2_Y614] | 0.574
FRGFSYDDIPD [TMEM230_Y112_YF] | 0.71
HLTLVYGGIFL [FBP1_Y259_R255L] | 0.849
LPPGEYVVVPS [CAPN1_Y494] | 3.72
FISLIYTNFEA [GSTP1_Y109_YF] | 0.793
MSRDVYSTDCF [NTRK2_Y702_Y706C_YF] | 0.675
DEIPLYLKGGV [COX7A2_Y44] | 0.508
DISEPYKVYRI [IRF8_Y107] | 0.517
KILTHYKRPHT [KMT2D_Y5349] | 0.42
RAIDMYLMGCF [GABRB2_Y308_K303R] | 0.706
